Substitutions are numbered along the chain they refer to.
T1: human TGFβ3 (human, UniProt P10600 301-412)
T1 sequence: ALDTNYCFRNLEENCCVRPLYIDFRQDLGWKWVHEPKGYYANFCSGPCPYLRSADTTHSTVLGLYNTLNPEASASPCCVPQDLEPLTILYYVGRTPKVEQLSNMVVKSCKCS

T2: human TGFβ2 (human, UniProt P61812 303-414)
T2 construct: also called TGFβ2 homodimer
T2 sequence: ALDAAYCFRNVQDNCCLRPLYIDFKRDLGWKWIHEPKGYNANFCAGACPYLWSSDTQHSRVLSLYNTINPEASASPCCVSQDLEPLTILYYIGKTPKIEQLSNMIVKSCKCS

B1: I52A (antibody, V domains shown)
VH: QVQLVQSGAEVKKPGSSVKVSCKASGYTFSSNVISWVRQAPGQGLEWMGGVAPIVDIANYAQRFKGRVTITADESTSTTYMELSSLRSEDTAVYYCASTLGLVLDAMDYWGQGTLVTVSS
VL: ETVLTQSPGTLSLSPGERATLSCRASQSLGSSYLAWYQQKPGQAPRLLIYGASSRAPGIPDRFSGSGSGTDFTLTISRLEPEDFAVYYCQQYADSPITFGQGTRLEIK
notes: GC1008 IgG4 variant
B2: I52C (antibody, V domains shown)
VH: B1 VH with A52C
VL: B1 VL
notes: GC1008 IgG4 variant
B3: I52D (antibody, V domains shown)
VH: B1 VH with A52D
VL: B1 VL
notes: GC1008 IgG4 variant
B4: I52E (antibody, V domains shown)
VH: B1 VH with A52E
VL: B1 VL
notes: GC1008 IgG4 variant
B5: I52G (antibody, V domains shown)
VH: B1 VH with A52G
VL: B1 VL
notes: GC1008 IgG4 variant
B6: I52H (antibody, V domains shown)
VH: B1 VH with A52H
VL: B1 VL
notes: GC1008 IgG4 variant
B7: I52K (antibody, V domains shown)
VH: B1 VH with A52K
VL: B1 VL
notes: GC1008 IgG4 variant
B8: I52N (antibody, V domains shown)
VH: B1 VH with A52N
VL: B1 VL
notes: GC1008 IgG4 variant
B9: I52Q (antibody, V domains shown)
VH: B1 VH with A52Q
VL: B1 VL
notes: GC1008 IgG4 variant
B10: I52R (antibody, V domains shown)
VH: B1 VH with A52R
VL: B1 VL
notes: GC1008 IgG4 variant
B11: I52S (antibody, V domains shown)
VH: B1 VH with A52S
VL: B1 VL
notes: GC1008 IgG4 variant
B12: I52W (antibody, V domains shown)
VH: B1 VH with A52W
VL: B1 VL
notes: GC1008 IgG4 variant
B13: V55K (antibody, V domains shown)
VH: B1 VH with A52I, V55K
VL: B1 VL
notes: GC1008 IgG4 variant
B14: S30E (antibody, V domains shown)
VH: B1 VH with S30E, A52I
VL: B1 VL
notes: GC1008 IgG4 variant
B15: S30W (antibody, V domains shown)
VH: B1 VH with S30W, A52I
VL: B1 VL
notes: GC1008 IgG4 variant
B16: S31W (antibody, V domains shown)
VH: B1 VH with S31W, A52I
VL: B1 VL
notes: GC1008 IgG4 variant
B17: V55F (antibody, V domains shown)
VH: B1 VH with A52I, V55F
VL: B1 VL
notes: GC1008 IgG4 variant
B18: Y27H (antibody, V domains shown)
VH: B1 VH with Y27H, A52I
VL: B1 VL
notes: GC1008 IgG4 variant

Target: T1, human TGFβ3
Experiment: Biacore, immobilised TGFβ

| Binder | binding result |
| --- | --- |
| B1 | no binding (tested: 50 nM) |
| B2 | no binding (tested: 50 nM) |
| B3 | no binding (tested: 50 nM) |
| B4 | no binding (tested: 50 nM) |
| B5 | no binding (tested: 50 nM) |
| B6 | no binding (tested: 50 nM) |
| B7 | no binding (tested: 50 nM) |
| B8 | no binding (tested: 50 nM) |
| B9 | no binding (tested: 50 nM) |
| B10 | no binding (tested: 50 nM) |
| B11 | no binding (tested: 50 nM) |
| B12 | no binding (tested: 50 nM) |
| B13 | no binding (tested: 50 nM) |

Target: T2, human TGFβ2
Experiment: Biacore, immobilised TGFβ

| Binder | binding result |
| --- | --- |
| B1 | no binding (tested: 50 nM) |
| B2 | no binding (tested: 50 nM) |
| B3 | no binding (tested: 50 nM) |
| B4 | no binding (tested: 50 nM) |
| B5 | no binding (tested: 50 nM) |
| B6 | no binding (tested: 50 nM) |
| B7 | no binding (tested: 50 nM) |
| B8 | no binding (tested: 50 nM) |
| B9 | no binding (tested: 50 nM) |
| B10 | no binding (tested: 50 nM) |
| B11 | no binding (tested: 50 nM) |
| B12 | no binding (tested: 50 nM) |
| B13 | no binding (tested: 50 nM) |

Target: T3, human TGFβ1 (human, UniProt P01137 279-390)
T3 construct: also called TGFβ1 homodimer
Experiment: Biacore, immobilised TGFβ

T3 sequence (P01137 279-390 limits assumed): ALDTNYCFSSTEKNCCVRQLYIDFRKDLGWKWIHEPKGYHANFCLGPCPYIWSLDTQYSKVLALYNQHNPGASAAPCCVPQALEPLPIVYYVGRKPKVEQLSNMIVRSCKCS

| Binder | binding result |
| --- | --- |
| B1 | no binding (tested: 50 nM) |
| B2 | no binding (tested: 50 nM) |
| B3 | no binding (tested: 50 nM) |
| B4 | no binding (tested: 50 nM) |
| B5 | no binding (tested: 50 nM) |
| B6 | no binding (tested: 50 nM) |
| B7 | no binding (tested: 50 nM) |
| B8 | no binding (tested: 50 nM) |
| B9 | no binding (tested: 50 nM) |
| B10 | no binding (tested: 50 nM) |
| B11 | no binding (tested: 50 nM) |
| B12 | no binding (tested: 50 nM) |
| B13 | no binding (tested: 50 nM) |

Target: T1, human TGFβ3
Experiment: Biacore off-rate vs wt GC1008
Source text: (§1) Plasmids encoding either the GC1008 heavy chain or light chain were used as a template in PCR-based mutagenesis reactions. Mutations to the encoding DNA were made to create 155 single amino acid substitutions of the encoded heavy chain amino acid sequence and one single amino acid substitution of the encoded light chain amino acid sequence. A QuikChange® Lightning Site-Directed Mutagenesis kit (Agilent Technologies, Santa Clara Calif.) was used according to the manufacturer's instructions to create DNA mutations using a set of forward and reverse primers, either designed for a specific amino acid or for all 20 amino acids with a degenerate codon (NNK). After sequencing confirmation, identified mutant DNA was paired with a wild-type light or heavy chain DNA for transfection into an Expi293F™ host cell suspension (Life Techonologies Corp., Grand Island, N.Y.). At 4 days post-transfection, conditioned media (1 mL) was harvested and purified using a 1 mL Protein A PhyTip® column (PhyNexus, Inc., San Jose, Calif.) and a PureSpeed™ 12-channel pipette (Rainin Instrument LLC, Oakland, Calif.). Purified variant antibody samples were analyzed in duplicate on a Biacore® 3000 (GE Healthcare) at 50 nM concentrations, using the 100 RU level TGFβ1, 2, and 3 immobilized surfaces. The off-rate (kd) of the variants was divided by the kd of the wild-type control to obtain the fold change in the kd. […] A heat map was generated to visualize the results. Variants that completely lost affinity for TGFβ were shown in red without numbers.

| Binder | kd mutant/kd wt |
| --- | --- |
| B14 | 1.1 |
| B15 | 0.3 |
| B16 | 1.6 |
| B17 | 1.2 |
| B18 | 1.4 |

Target: T2, human TGFβ2
Experiment: Biacore off-rate vs wt GC1008
Source text: as §1

| Binder | kd mutant/kd wt |
| --- | --- |
| B14 | 1.4 |
| B15 | 0.4 |
| B16 | 1.4 |
| B17 | 0.9 |
| B18 | 1.4 |

Target: T3, human TGFβ1
Experiment: Biacore off-rate vs wt GC1008
Source text: as §1

| Binder | kd mutant/kd wt |
| --- | --- |
| B14 | 1.2 |
| B15 | 0.7 |
| B16 | 1.7 |
| B17 | 1.2 |
| B18 | 1.5 |

Target: T1, human TGFβ3
Experiment: Biacore off-rate vs wt GC1008, 50 nM
Summary of the method: (§2)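 Surface plasmon resonance on a Biacore 3000 measured how fast purified antibody variants dissociated from TGFβ isoforms immobilized at about 100 RU. Variants carried single heavy- or light-chain substitutions and were produced by transient Expi293F transfection with Protein A cleanup. Samples at 50 nM were tested in duplicate, and each variant kd was divided by the wild-type control kd to give fold change.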

| Binder | kd var/kd wt |
| --- | --- |
| B14 | 1.1 |
| B15 | 0.3 |
| B16 | 1.6 |
| B17 | 1.2 |
| B18 | 1.4 |

Target: T2, human TGFβ2
Experiment: Biacore off-rate vs wt GC1008, 50 nM
Summary of the method: as §2

| Binder | kd var/kd wt |
| --- | --- |
| B14 | 1.4 |
| B15 | 0.4 |
| B16 | 1.4 |
| B17 | 0.9 |
| B18 | 1.4 |

Target: T3, human TGFβ1
Experiment: Biacore off-rate vs wt GC1008, 50 nM
Summary of the method: as §2

| Binder | kd var/kd wt |
| --- | --- |
| B14 | 1.2 |
| B15 | 0.7 |
| B16 | 1.7 |
| B17 | 1.2 |
| B18 | 1.5 |

Target: T1, human TGFβ3
Experiment: Biacore, 3.33-90 nM, 1:1 global fit, vs wt GC1008
Procedure: (§3) In FIG. 6C, seventeen mutants were selected and scaled up to produce sufficient amount of purified protein for KD (equilibrium constant=kd/ka) analysis by Biacore. Multiple concentrations (90, 30, 10 and 3.33 nM) were used in duplicate on the 150 RU level TGFβ1, 2, and 3 immobilized surfaces. KD was calculated using global curve fitting analysis for a 1-to-1 Langmuir binding model. The experimental data from all four concentrations were used for calculation except for I54N and I54R mutants, where only the top 2 concentrations were used. The fold changes in KD were compared to the fold changes in kd (off rate) presented in FIG. 6B, and a heat map was generated for visualization. Similar fold changes were observed from the two data sets, confirming the validity of using kd as a parameter for screening of 155 single mutants as shown in FIG. 6B.

| Binder | KD mutant/KD wt |
| --- | --- |
| B14 | 0.8 |
| B15 | 0.3 |
| B16 | 1.3 |
| B17 | 0.8 |
| B18 | 1.1 |

Target: T2, human TGFβ2
Experiment: Biacore, 3.33-90 nM, 1:1 global fit, vs wt GC1008
Procedure: as §3

| Binder | KD mutant/KD wt |
| --- | --- |
| B14 | 1.6 |
| B15 | 0.4 |
| B16 | 1.3 |
| B17 | 0.6 |
| B18 | 1.3 |

Target: T3, human TGFβ1
Experiment: Biacore, 3.33-90 nM, 1:1 global fit, vs wt GC1008
Procedure: as §3

| Binder | KD mutant/KD wt |
| --- | --- |
| B14 | 1.5 |
| B15 | 0.7 |
| B16 | 1.3 |
| B17 | 1 |
| B18 | 1.2 |

— patent publication US20170342144A1 (Sanofi, published 2017)
